Test results taken from US7303752B2, “Hookworm vaccine” (The George Washington University, priority 2001, dated 2007).
“And” between values parts separate entries of the source, which are not always exact repeats. Identical values can stand only once.

What was measured:
Assay type in all cases: in vivo, dog
A. caninum [1] = experiment: Canine vaccine trial HV-12, percutaneous challenge with 500 A. caninum L3; conditions: for Adult Hookworm Worm Counts, Intestine, Male, Average / Adult Hookworm Worm Counts, Intestine, Female, Average / Adult Hookworm Worm Counts, Total, Average: group average; for Adult Hookworm Worm Counts, Intestine, Male, Average: AS03 control 64; for Adult Hookworm Worm Counts, Intestine, Female, Average: AS03 control 71; for Adult Hookworm Worm Counts, Total, Average: AS03 control 137
Protocol: (§1) Brief Outline of Study Sections: Purpose bred beagles were randomized into five groups. […] groups were given one of three candidate vaccines: Ac-Cystatin, Ac-MTP-2 and Ac-GST in combination with the adjuvant ASO3. One group will serve as the negative control receiving the adjuvant only. Another group will be a positive control immunized with irradiated infective larvae. Each animal's specific antibody response was evaluated by direct ELISA using serum taken prior to the infective challenge. Cellular immune responses were assessed by peripheral (blood cells) lymphoproliferative responses to specific recombinant antigens and/or crude extract of infective larvae (L3) or adult worms. Local cellular immune responses were performed post mortem with lymphocytes extracted from mesenteric lymph nodes and, if considered, spleen. After immunization, animals were challenged with a known number dose of infective third stage larvae of A. caninum. Quantitative ova counts, used to evaluate worm burden, were determined from fecal samples collected three times per week. […] Tissues from different organs were examined macro and microscopically to assess any consequence of the vaccine, parasite or immune related lesions.
(§2) Administration of Test and Control Articles: The vaccines and adjuvant were administered intramuscularly (IM) […] beginning when the dogs are 62+/−4 days old. The vaccines are boosted at 21+/−3-day intervals. Four doses of the vaccines were given 21 days apart (days 0, 21, 42, and […]). The dogs were challenged percutaneously with 500 A. caninum L3, 14 days after the final vaccination.
Challenge Infection: Ancylostoma caninum larvae were cultured from the eggs collected in the feces of infected dogs. All hookworms in the infective challenge were approximately equal age (17±7 days). The species identity of the infective larva dose were validated using PCR DNA amplification and specific oligonucleotide primers. Overnight-collected feces of A. caninum-infected dogs were cultured, extracted and counted. All dogs were infected by the footpad method with the same dose (500+/−5%, of 3rd stage larvae of A. caninum. Larval challenge occurs on one of three consecutive days (at age 120+/−9 days) in 5 series. To minimize the difference in the infective L3 doses, each series included one dog from each (A-E group). […]
Adult Worm Count. Adult worms retained in the small and large intestines were collected. The small and large bowel will be collected and the small intestine will be suspended (the large bowel will not be suspended) in a container and incubated for at least two hours at 35° C. saline to collect the adult parasites. The adult worms were separated from the intestinal contents, counted, and preserved in formalin for subsequent count and analysis of sex, length and weight. Results and Analysis

[2] = system: antigen-specific IgG1 and IgG2; experiment: Antibody titers in HV-12 (Ac-CYS, Ac-MTP-2, Ac-GST in AS03, irradiated L3); conditions: for Antibody titers, IgG1, GEOMEAN / Antibody titers, IgG2, GEOMEAN: geometric mean of group; for Antibody titers, IgG1 / Antibody titers, IgG2: individual dogs, after four immunizations, L3 Extract = group E dogs vaccinated with irradiated L3
Protocol: as §1, §2
Serum Samples for Quantitative ELISA Antibody Titers: Animals treated with vaccines containing foreign proteins develop an immune response resulting in an increased level of high affinity serum antibodies that are directed against the antigen. […] White blood cells were collected for immunological measurements nine (9) days after the last boost and at the time of euthanasia to address the cellular immune response status and cytokine production upon in vitro restimulation of lymphocytes.

A. caninum [3] = experiment: Canine vaccine trial with Ac-MTP-1, subcutaneous challenge with 500 A. caninum L3
Description: To test whether Ac-MTP-1 could be an effective vaccine, two groups of five (5) purpose-bred male beagles 8+1 wk of age were vaccinated either with the recombinant (expressed and isolated from Escherichia coli) fusion protein formulated with AS02A adjuvant, or adjuvant alone. The composition of AS02A, which has been successfully used in several malaria vaccine clinical studies, is described elsewhere (Lalvani et al, 1999; Bojang et al, 2001; Kester et al, 2001). Details of the animal husbandry and housing conditions were reported previously (Hotez et al, 2002a). The recombinant fusion protein containing a polyhistidine tag was purified from washed E. coli inclusion bodies that were solubilized in 6 M guanidine-HCl in 10 mM Tris HCl, pH 8.0. The solubilized inclusion bodies were processed in 5-10 ml batches by gel filtration chromatography (Sephacryl S-300, 26/60 gel filtration column [Amersham Pharmacia] pre-equilibrated in a buffer containing 0.1 NaH2PO4, 10 mM Tris-HCl and 6 M guanidine) at room temperature (flow rate of 2 ml/minute). Selected fractions containing Ac-MTP-1 (as determined by analysis on sodium dodecyl sulfate-polyacrylamide gel electrophoresis [SDS-PAGE]) were pooled, refolded according to the method of Singh et al (2001), and then loaded onto a 5 ml Hi-Trap IMAC column (Amersham Pharmacia) charged with ZnCl2 and equilibrated in 50 mM sodium phosphate pH 7.2, 1 M urea, and 0.5 M NaCl. The column was subsequently washed with 15 column volumes of equilibration buffer, and the bound protein was eluted with 50 mM sodium phosphate pH7.2, 1 M urea, 0.5 M NaCl, and 50 mM ethylenediamine tetraacetic acid (EDTA). Eluted samples containing protein were pooled and dialyzed against 10 mM Tris-HCl pH 8.0, 5% glycerol, 1 mM dithiothreitol, and 2 mM EDTA.
The recombinant Ac-MTP-1 fusion protein was mixed with SBAS2 adjuvant and administered to each of five dogs in four intramuscular injections on days 1, 4, 43, and 50. […] Antigen-specific canine IgG2 and IgE antibodies were measured by indirect enzyme-linked immunosorbent assay (ELISA) as described previously (Hotez et al, 2002a). […] Quantitative hookworm egg counts (McMaster technique) on each dog were obtained 3 days per wk beginning on day 12 post-infection (PI). Five wk post-infection, the dogs were killed by intravenous barbituate injection, and the adult hookworms were recovered and counted from the small and large intestines at necropsy (Hotez et al., 2002c). The statistical significance of differences between adult hookworm burdens was determined using the Anova test, as were differences in hematological parameters and in quantitative hookworm egg counts. Comparisons of hookworm burden and egg counts with antibody titers were measured using Spearman rank order (nonparametric) correlations. […]

A. caninum [4] = experiment: Canine vaccine trial with Ac-TTR and SBAS2, L3 challenge: worm burden, blood loss, worm size
Protocol: E. coli derived antigens Ac-MTP-1 and Ac-TTR were tested in vaccine trials in dogs. Antigens were administered with adjuvant SBAS2. […] Subsequently the dogs were challenged by subcutaneous injection of L3 hookworm larvae.
Animals were also tested to ascertain whether vaccination with hookworm antigens protected against blood loss. […] Using the Mann-Whitney test, the differences in both hemoglobin (38B) concentration (P=0.036) and hematocrit (38A) concentration (P=0.009) between the TTR and adjuvant control groups were statistically significant.
Further, the differences in hemoglobin concentration translated to a statistically significant reduction in worm size. Data was collected using an imaging system based on scans of the worms recovered from a host. Worms were photographed with a CoolSnapPro digital camera (Media Cybernetics), and the images measured in ImagePro Software using a macro to determine worm length (in mm) compared between treatments. As shown in FIG. 39 there was a statistically significant reduction in worm size (between 1 and 2 mm) among the TTR vaccinated group relative to the adjuvant control group.

B1: Ac-MTP-2: A. caninum astacin protease antigen, SEQ ID NO: 42; Pichia pastoris expressed (protein, listed as Ancylostoma caninum)
chain: MKYFVLCFCAFFVVNADEEDDLPRNPLWDAYKDDNGKYVIPYVINGSYGEEKKVLFEMMDEIDKNTCVRFIPRSTEQDYIEIVNRLGEGTGAVVGKPGGKSIVLLESSKILNDPTPAPVMQTLMKIIGLPPEHIRPERKDHIKIHWENIEKGYEAFFALSSVKPDPYGIPYDYYSIMHYKKDAFAKPGTITMETLDKRYQDIIGNQEKPSKLDYKKICTKYKCDICMGEKMKY
Question: Which “Adult Hookworm Worm Counts, Intestine, Male, Average” value (A. caninum [1]) does the source give for B1 here?
Answer: 61

Question: What about the “Adult Hookworm Worm Counts, Intestine, Female, Average” value (A. caninum [1]) of the same molecule?
Answer: 60

Question: What about the “Adult Hookworm Worm Counts, Total, Average” value (A. caninum [1]) of the same molecule?
Answer: 132

Question: What about the “Adult Hookworm Worm Counts, Colon, Female” value (A. caninum [1]; individual dogs) of the same molecule?
Answer: 10 and 3 and 2 and 15 and 0

Question: What about the “Adult Hookworm Worm Counts, Colon, Male” value (A. caninum [1]; individual dogs) of the same molecule?
Answer: 11 and 2 and 1 (2×) and 9

Question: And the “Adult Hookworm Worm Counts, Intestine, Female” value (A. caninum [1]; individual dogs)?
Answer: 71 and 51 and 41 and 65 and 73

Question: And the “Adult Hookworm Worm Counts, Intestine, Male” value (A. caninum [1]; individual dogs)?
Answer: 64 (2×) and 49 and 41 and 87

Question: And the “Adult Hookworm Worm Counts, Total” value (A. caninum [1]; individual dogs)?
Answer: 156 and 105 and 85 and 153 and 161

Question: What about the “Antibody titers, IgG1, GEOMEAN” value [2] of the same molecule?
Answer: 62,850

Question: What about the “Antibody titers, IgG2, GEOMEAN” value [2] of the same molecule?
Answer: 121,500

Question: And the “Antibody titers, IgG1” value [2]?
Answer: 121,500 (2×) and 40,500 (3×)

Question: What about the “Antibody titers, IgG2” value [2] of the same molecule?
Answer: 364,500 and 121,500 (3×) and 40,500

B2: Ac-CYS: A. caninum cystatin antigen, SEQ ID NO: 100; Pichia pastoris expressed (protein, listed as Ancylostoma caninum)
chain: MPYLAFIVALLACTVMSGHGQMTGGLTKQDPNDPEHMARAWKAAKGINEDASNAGPYHMIPIKIVKAESQVVAGVRYIFEVLFGESTCKKGHMAATELSASNCELKEGGNRALYKVELWEKPWENFEQFNVEKIRNVAAGEQI
Question: With B2 as the molecule, how does the “Adult Hookworm Worm Counts, Intestine, Male, Average” value (A. caninum [1]) read?
Answer: 49

Question: And the “Adult Hookworm Worm Counts, Intestine, Female, Average” value (A. caninum [1])?
Answer: 56

Question: What about the “Adult Hookworm Worm Counts, Total, Average” value (A. caninum [1]) of the same molecule?
Answer: 107

Question: And the “Adult Hookworm Worm Counts, Colon, Female” value (A. caninum [1]; individual dogs)?
Answer: 0 (3×) and 5 and 2

Question: And the “Adult Hookworm Worm Counts, Colon, Male” value (A. caninum [1]; individual dogs)?
Answer: 0 (3×) and 1 and 3

Question: And the “Adult Hookworm Worm Counts, Intestine, Female” value (A. caninum [1]; individual dogs)?
Answer: 56 and 85 and 29 and 67 and 41

Question: And the “Adult Hookworm Worm Counts, Intestine, Male” value (A. caninum [1]; individual dogs)?
Answer: 44 and 81 and 38 and 48 and 36

Question: What about the “Adult Hookworm Worm Counts, Intestine, Unk. Sex” value (A. caninum [1]; individual dogs) of the same molecule?
Answer: 1

Question: What about the “Adult Hookworm Worm Counts, Total” value (A. caninum [1]; individual dogs) of the same molecule?
Answer: 100 and 167 and 67 and 124 and 79

Question: What about the “Antibody titers, IgG1, GEOMEAN” value [2] of the same molecule?
Answer: 121,500

Question: And the “Antibody titers, IgG2, GEOMEAN” value [2]?
Answer: 364,500

Question: And the “Antibody titers, IgG1” value [2]?
Answer: 121,500 (3×) and 40,500 and 364,500

Question: What about the “Antibody titers, IgG2” value [2] of the same molecule?
Answer: 364,500 (3×) and 121,500 and 1,093,500

B3: Ac-MTP-1: A. caninum L3 astacin zinc metalloprotease, SEQ ID NO: 16 (also listed as SEQ ID NO: 40); E. coli fusion protein (protein, listed as Ancylostoma caninum)
chain: MRVLLLLLLLSICASAGFLDTKFGQKIKKTLDKIKAVLNGTALIAIREKFIRLREKIKAKLTLSPARKAILDEVMKHIKMIKKDKIQEKGDSIDEINEKSAIGQLLYQGDIVLTEKQAQQITEDIENDKGDREKRQAFRDRNYPRTLWSKGVYFHFHRNATPEVRSVFVKGAKLWMKDTCIDFFESNSAPDRIRVFKENGCWSYVGRLGGEQDLSLGEGCQSVGTAAHEIGHAIGFYHTHARHDRDNFITFNAQNVKPDWLDQFTLQTPATNENYGITYDYGSIMHYGANSASQNGRPTMVPHDPKYVETLGINKHYDCTKNCDPATSAQCKMGGFPHPRDCTRCICPSGYGGKLCDQKPAGCGSIYQATNQYQTLHDEIGDKRAGQRPREDMDFCYYWITAPKGSKIEIKIAGLSQGAAVEGCQYWGVEIKTHADQRLTGYRFCAPEDVGVRLVSNFNIVPIITYNIFYATYVDIQYRIVGDNVGGPMPQPQPNSNCVDNEQCATLVRTKNFCQSRFFTSSVKRGLCPKSSGFCR
Question: Which “reduction in worm burden, dog with highest versus dog with lowest antibody titer” value (A. caninum [3]; dog, in vivo) does the source give for B3 here?
Answer: 50%

Question: And the “hookworms recovered from the dog with the highest antibody titer” value (A. caninum [3]; single vaccinated dog)?
Answer: 98 hookworms

Question: And the “hookworms recovered from the dog with the lowest antibody titer” value (A. caninum [3]; single vaccinated dog)?
Answer: 189 hookworms

Question: What about the “number of adult hookworms recovered (mean+standard deviation)” value (A. caninum [3]; vaccinated dogs, 5 wk after 500 L3 s.c., control dogs 143+30, not significant) of the same molecule?
Answer: 154+34 hookworms

B4: Ac-TTR-1: A. caninum transthyretin antigen, SEQ ID NO: 30; E. coli derived, given with SBAS2 (protein, listed as Ancylostoma caninum)
chain: MIQLFLLALVPMCISVREQSIAVKGRLLCGDQPAANVRVKLWEEDTGPDPDDLLDAGYTNSNGEFQLQGGTIETTPIDPVLKIYHDCNDVTGFLSVPKPGSRKVRFSLPDKYISDGMVPKKVMDIGVINLEVEFEKEGREFIVD
Question: Which results are given for B4?
Answer: reduced hookworm burden (A. caninum [4]; one dog with high IgE and IgG1 antibody to TTR): 6%; protection against blood loss (hemoglobin, hematocrit) (A. caninum [4]; versus adjuvant control, hemoglobin P=0.036, hematocrit P=0.009): significant protection against blood loss
